Paper PMC2428073, “Architecture of a Serine Recombinase-DNA Regulatory Complex” (Molecular Cell, 2008)
Where “and” joins values, the source holds several entries; their conditions need not be identical. Equal values may be shown once.

T1: Sin recombinase (pI9789 Sin) (Staphylococcus aureus (multiresistance …, UniProt P20384 1-202))
T1 sequence: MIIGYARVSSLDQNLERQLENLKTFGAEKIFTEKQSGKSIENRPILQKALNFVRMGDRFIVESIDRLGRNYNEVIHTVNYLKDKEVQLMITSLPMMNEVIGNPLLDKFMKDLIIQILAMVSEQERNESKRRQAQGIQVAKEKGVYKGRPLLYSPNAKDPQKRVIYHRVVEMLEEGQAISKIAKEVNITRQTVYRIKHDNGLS


How the values were obtained:
[1] = biological target: the molecule itself; experiment: crystal structure; WT Sin cocrystallized with a 29 bp site II DNA duplex (2:1.25 molar ratio), hanging drop, 25 mM TRIS pH 7.5, (NH4)2SO4; two DNA-bound Sin dimers per asymmetric unit; 3.21 Å
[2] = biological target: T1, Sin recombinase (pI9789 Sin); experiment: X-ray crystallography (MAD/SIRAS, 3.21 A); Crystal structure; protein stored in 25 mM Tris pH 7.5, 0.5 mM EDTA, 400 mM (NH4)2SO4, 20% glycerol; DNA annealed in 100 mM NaCl; crystallization conditions not in the material; conditions: protein: recombinant; tags: His6 (C-terminal); chain copies: 2; overhanging AT dinucleotides pairing with adjacent duplexes

| Binder | stoichiometry N [1] | binding result [2] |
| --- | --- | --- |
| Wild-type His6-tagged pI9789 Sin (enzyme, S. aureus, UniProt P20384 1-202, looked up, Sin resolvase (serine recombinase family) encoded by S. aureus plasmid pI9789; the crystal holds 836 Sin residues in four monomers (209 each, with the tag); The last nine residues, which contain the His6 tag, are not seen in the model; In the in vivo synapsis assay WT Sin was expressed from pSA9944 (also with a C-terminal His6 tag) in E. coli DS941; also called WT Sin; Sin resolvase; source: E. …) MIIGYARVSSLDQNLERQLENLKTFGAEKIFTEKQSGKSIENRPILQKALNFVRMGDRFIVESIDRLGRNYNEVIHTVNYLKDKEVQLMITSLPMMNEVIGNPLLDKFMKDLIIQILAMVSEQERNESKRRQAQGIQVAKEKGVYKGRPLLYSPNAKDPQKRVIYHRVVEMLEEGQAISKIAKEVNITRQTVYRIKHDNGLS | 2 and 4 | – |
| Sin res site II 29 bp duplex (dsDNA, 5-Br-dU and iodine-labelled versions used for phasing) DNA 1: AACGTATGATTAGGGTGTATATTAATTTATA DNA 2: TAAATTAATATACACCCTAATCATACGTTTA | – | binds |
